In patent US20230220589A1:
Residue numbers refer to the chain shown, from its start. Blank lines part the entries; values can stand above or below the binder they belong to.

How the values were obtained:
[1] = target: M44-modified L NTAA target peptides (M44-L-P2-peptide); experiment: Gini coefficient of P1 selectivity from multiplex encoding heatmap
[2] = target: M44-modified G NTAA target peptides (M44-G-P2-peptide); experiment: encoding assay; P2 E;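 also: fraction of recording tags encoded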
[3] = target: M44-modified S NTAA target peptides; experiment: encoding assay; P2 Y
[4] = target: M44-modified E NTAA target peptides; experiment: encoding assay; P2 W;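 also: fraction of recording tags encoded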
[5] = target: M17-modified M NTAA target peptides; experiment: encoding assay; P2 D;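 also: fraction of recording tags encoded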
[6] = target: M17-modified I NTAA target peptides; experiment: encoding assay; P2 D;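 also: fraction of recording tags encoded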
[7] = target: M17-modified Y NTAA target peptides (M17-Y-P2-peptide); experiment: Gini coefficient of P1 selectivity from multiplex encoding heatmap
[8] = target: M17-modified L NTAA target peptides; experiment: encoding assay; P2 E;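 also: fraction of recording tags encoded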
[9] = target: M17-modified D NTAA target peptides; experiment: encoding assay; P2 E;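 also: fraction of recording tags encoded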
[10] = target: M17-modified W NTAA target peptides; experiment: encoding assay; P2 E;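 also: fraction of recording tags encoded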
[11] = target: M17-modified F NTAA target peptides; experiment: encoding assay; P2 E;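 also: fraction of recording tags encoded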
[12] = target: M17-modified Y NTAA target peptides (M17-Y-P2-peptide); experiment: encoding assay; P2 E;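 also: fraction of recording tags encoded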
[13] = target: M17-modified N NTAA target peptides; experiment: encoding assay; P2 E;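 also: fraction of recording tags encoded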
[14] = target: M17-modified P NTAA target peptides; experiment: encoding assay; P2 E;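 also: fraction of recording tags encoded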
[15] = target: M17-modified T NTAA target peptides; experiment: encoding assay; P2 E;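 also: fraction of recording tags encoded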
[16] = target: M17-modified A NTAA target peptides; experiment: encoding assay; P2 E;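 also: fraction of recording tags encoded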
[17] = target: M17-modified Q NTAA target peptides; experiment: encoding assay; P2 E;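 also: fraction of recording tags encoded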
[18] = target: M17-modified S NTAA target peptides; experiment: encoding assay; P2 E;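 also: fraction of recording tags encoded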
[19] = target: M17-modified M NTAA target peptides; experiment: encoding assay; P2 E;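 also: fraction of recording tags encoded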
[20] = target: M17-modified E NTAA target peptides; experiment: encoding assay; P2 E;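 also: fraction of recording tags encoded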
[21] = target: M17-modified G NTAA target peptides; experiment: encoding assay; P2 E;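 also: fraction of recording tags encoded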
[22] = target: M17-modified I NTAA target peptides; experiment: encoding assay; P2 E;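 also: fraction of recording tags encoded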
[23] = target: M17-modified H NTAA target peptides; experiment: encoding assay; P2 E;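 also: fraction of recording tags encoded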
[24] = target: M17-modified V NTAA target peptides; experiment: encoding assay; P2 E;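 also: fraction of recording tags encoded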
[25] = target: M17-modified L NTAA target peptides; experiment: encoding assay; P2 Y;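 also: fraction of recording tags encoded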
[26] = target: M17-modified D NTAA target peptides; experiment: encoding assay; P2 Y;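 also: fraction of recording tags encoded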
[27] = target: M17-modified W NTAA target peptides; experiment: encoding assay; P2 Y;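 also: fraction of recording tags encoded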
[28] = target: M17-modified F NTAA target peptides; experiment: encoding assay; P2 Y;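 also: fraction of recording tags encoded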
[29] = target: M17-modified Y NTAA target peptides (M17-Y-P2-peptide); experiment: encoding assay; P2 Y;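 also: fraction of recording tags encoded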
[30] = target: M17-modified N NTAA target peptides; experiment: encoding assay; P2 Y;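 also: fraction of recording tags encoded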
[31] = target: M17-modified P NTAA target peptides; experiment: encoding assay; P2 Y;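 also: fraction of recording tags encoded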
[32] = target: M17-modified T NTAA target peptides; experiment: encoding assay; P2 Y;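 also: fraction of recording tags encoded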
[33] = target: M17-modified A NTAA target peptides; experiment: encoding assay; P2 Y;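 also: fraction of recording tags encoded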
[34] = target: M17-modified Q NTAA target peptides; experiment: encoding assay; P2 Y;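 also: fraction of recording tags encoded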
[35] = target: M17-modified S NTAA target peptides; experiment: encoding assay; P2 Y;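 also: fraction of recording tags encoded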
[36] = target: M17-modified M NTAA target peptides; experiment: encoding assay; P2 Y;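 also: fraction of recording tags encoded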
[37] = target: M17-modified E NTAA target peptides; experiment: encoding assay; P2 Y;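 also: fraction of recording tags encoded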
[38] = target: M17-modified G NTAA target peptides; experiment: encoding assay; P2 Y;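 also: fraction of recording tags encoded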
[39] = target: M17-modified I NTAA target peptides; experiment: encoding assay; P2 Y;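 also: fraction of recording tags encoded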
[40] = target: M17-modified H NTAA target peptides; experiment: encoding assay; P2 Y;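 also: fraction of recording tags encoded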
[41] = target: M17-modified L NTAA target peptides; experiment: encoding assay; P2 W;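 also: fraction of recording tags encoded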
[42] = target: M17-modified D NTAA target peptides; experiment: encoding assay; P2 W;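 also: fraction of recording tags encoded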
[43] = target: M17-modified W NTAA target peptides; experiment: encoding assay; P2 W;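 also: fraction of recording tags encoded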
[44] = target: M17-modified F NTAA target peptides; experiment: encoding assay; P2 W;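 also: fraction of recording tags encoded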
[45] = target: M17-modified Y NTAA target peptides (M17-Y-P2-peptide); experiment: encoding assay; P2 W;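 also: fraction of recording tags encoded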
[46] = target: M17-modified N NTAA target peptides; experiment: encoding assay; P2 W;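 also: fraction of recording tags encoded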
[47] = target: M17-modified P NTAA target peptides; experiment: encoding assay; P2 W;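 also: fraction of recording tags encoded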
[48] = target: M17-modified A NTAA target peptides; experiment: encoding assay; P2 W;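 also: fraction of recording tags encoded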
[49] = target: M17-modified Q NTAA target peptides; experiment: encoding assay; P2 W;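 also: fraction of recording tags encoded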
[50] = target: M17-modified S NTAA target peptides; experiment: encoding assay; P2 W;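 also: fraction of recording tags encoded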
[51] = target: M17-modified M NTAA target peptides; experiment: encoding assay; P2 W;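 also: fraction of recording tags encoded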
[52] = target: M17-modified E NTAA target peptides; experiment: encoding assay; P2 W;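 also: fraction of recording tags encoded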
[53] = target: M17-modified H NTAA target peptides; experiment: encoding assay; P2 W;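 also: fraction of recording tags encoded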
[54] = target: M17-modified V NTAA target peptides; experiment: encoding assay; P2 W;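 also: fraction of recording tags encoded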

- P1 score [1]: 0.332
- encoding yield [2]: 0.01
- encoding yield [3]: 0.01
- encoding yield [4]: 0.01
B1: engineered M44-L binder (SEQ ID NO: 31) (designed binder, not shown: small tags and cut ends; large carriers)
chain: QDSTQNLIPAPPLISVPLQPGFWTERFQGRWFLVGFAGNAVQKERQSRLTMQSLILELQEDNSYNITAINVRGQGCRYIISTLVPSSRPGQFTLGNIHSYPQIQSLDVQVADTDYDQFAMVFLQGTSENKQYFEVALAGRTKGLSDELKERFVSFAKSLGLKDNNIVFSVPTDQCIDN

- encoding yield [2]: 0.01
- encoding yield [3]: 0.01
- encoding yield [4]: 0.02
B2: engineered M44-A binder (SEQ ID NO: 42) (designed binder, not shown: small tags and cut ends; large carriers)
chain: QVSVQPNFQQDKFLGRWFVAGLASNSSWDREKVAALSGAKMVVAPATDGGLNVTRTMLRKNQCETYTGLLQPAGSLGSYSWRSPHPGSTGSESVVETDYDQYALVYGQGSKGPGEDLRAAALWSRTQTPRAELKEKFTAFSKAQGFTEDTIVFLPQTDKCMTEQ

- P1 score [1]: 0.412
B3: engineered M44-L binder (SEQ ID NO: 21) (designed binder, not shown: small tags and cut ends; large carriers)
chain: QVSVQPNFQQDKFLGRWFYAGHASNSSWYREKVAALSMAKLVVAPATDGGLNATETFLRKNQCETITSLLQPAGSLGSYSSRSPHGGSTWSTSVVETDYDQYALLYLQGSKGPGEDFRGAILASRTQTPRAELKEKFTAFSKAQGFTEDTIVFLPQTDKCMTEQ

- encoding yield [5]: 0.02
- encoding yield [6]: 0.01
- P1 score [7]: 0.196
- encoding yield [8]: 0.02
- encoding yield [9]: 0.02
- encoding yield [10]: 0.03
- encoding yield [11]: 0.01
- encoding yield [12]: 0.07
- encoding yield [13]: 0.01
- encoding yield [14]: 0.02
- encoding yield [15]: 0.01
- encoding yield [16]: 0.02
- encoding yield [17]: 0.02
- encoding yield [18]: 0.02
- encoding yield [19]: 0.01
- encoding yield [20]: 0.02
- encoding yield [21]: 0.01
- encoding yield [22]: 0.01
- encoding yield [23]: 0.02
- encoding yield [24]: 0.02
- encoding yield [25]: 0.1
- encoding yield [26]: 0.03
- encoding yield [27]: 0.07
- encoding yield [28]: 0.09
- encoding yield [29]: 0.15
- encoding yield [30]: 0.03
- encoding yield [31]: 0.03
- encoding yield [32]: 0.04
- encoding yield [33]: 0.01
- encoding yield [34]: 0.01
- encoding yield [35]: 0.01
- encoding yield [36]: 0.04
- encoding yield [37]: 0.01
- encoding yield [38]: 0.04
- encoding yield [39]: 0.1
- encoding yield [40]: 0.06
- encoding yield [41]: 0.03
- encoding yield [42]: 0.02
- encoding yield [43]: 0.04
- encoding yield [44]: 0.14
- encoding yield [45]: 0.12
- encoding yield [46]: 0.02
- encoding yield [47]: 0.03
- encoding yield [48]: 0.02
- encoding yield [49]: 0.02
- encoding yield [50]: 0.02
- encoding yield [51]: 0.02
- encoding yield [52]: 0.01
- encoding yield [53]: 0.02
- encoding yield [54]: 0.05
B4: engineered M17-Y binder (SEQ ID NO: 61) (designed binder, not shown: small tags and cut ends; large carriers)
chain: TVPDRSEIAGKWYVVALASNTEFYLREKDWVKSAMARISFLGEDELKVSSAVPSPNGCYKVERTWKKTSDDGEVYNSRAAKLKVEVLDTDYKSYAVIYATRVKDGRTDHQMILYSRSPEVSPAATAIFRKLAGERNYTDEMVAMLPRQEECTVDEV

- encoding yield [5]: 0.03
- encoding yield [6]: 0.02
- P1 score [7]: 0.204
- encoding yield [8]: 0.02
- encoding yield [9]: 0.02
- encoding yield [10]: 0.06
- encoding yield [11]: 0.02
- encoding yield [12]: 0.16
- encoding yield [13]: 0.02
- encoding yield [14]: 0.04
- encoding yield [15]: 0.02
- encoding yield [16]: 0.03
- encoding yield [17]: 0.03
- encoding yield [18]: 0.03
- encoding yield [19]: 0.01
- encoding yield [20]: 0.03
- encoding yield [21]: 0.02
- encoding yield [22]: 0.02
- encoding yield [23]: 0.02
- encoding yield [24]: 0.03
- encoding yield [25]: 0.11
- encoding yield [26]: 0.03
- encoding yield [27]: 0.12
- encoding yield [28]: 0.1
- encoding yield [29]: 0.21
- encoding yield [30]: 0.02
- encoding yield [31]: 0.05
- encoding yield [32]: 0.04
- encoding yield [33]: 0.03
- encoding yield [34]: 0.01
- encoding yield [35]: 0.01
- encoding yield [36]: 0.02
- encoding yield [37]: 0.03
- encoding yield [38]: 0.06
- encoding yield [39]: 0.12
- encoding yield [40]: 0.06
- encoding yield [41]: 0.03
- encoding yield [42]: 0.04
- encoding yield [43]: 0.1
- encoding yield [44]: 0.18
- encoding yield [45]: 0.19
- encoding yield [46]: 0.04
- encoding yield [47]: 0.03
- encoding yield [48]: 0.04
- encoding yield [49]: 0.03
- encoding yield [50]: 0.06
- encoding yield [51]: 0.04
- encoding yield [52]: 0.01
- encoding yield [53]: 0.04
- encoding yield [54]: 0.07
B5: upgraded binder after additional maturation round (SEQ ID NO: 62) (designed binder, not shown: small tags and cut ends; large carriers)
chain: B4 chain with E27G, W30R, A36V, L41Q, G105R, E119D
